This note sets out measurements from publication PMC2957469.

Assay [1] has as its target JCV VP1 pentamer (amino acids 22-289) A126Q, His-tagged (JC polyomavirus (JCV), Mad-1 strain). The assay can be described thus: SEC. (Size exclusion chromatography separates by hydrodynamic size, large species first.)
For assay [2], the target named is JCV VP1 pentamer (amino acids 22-289) A126Y, His-tagged (JC polyomavirus (JCV), Mad-1 strain). The assay can be described thus: SEC.
The target in assay [3] is JCV VP1 pentamer (amino acids 22-289) L54Y, His-tagged (JC polyomavirus (JCV), Mad-1 strain). The experiment in a line: SEC.
The target of assay [4] is JCV VP1 pentamer (amino acids 22-289) N123A, His-tagged (JC polyomavirus (JCV), Mad-1 strain). The experiment in a line: SEC.
Assay [5] deals with JCV VP1 pentamer (amino acids 22-289) R265A, His-tagged (JC polyomavirus (JCV), Mad-1 strain). The assay can be described thus: SEC.
Assay [6] has as its target JCV VP1 pentamer (amino acids 22-289) S266A/S268A, His-tagged (JC polyomavirus (JCV), Mad-1 strain). The assay can be described thus: SEC.
Assay [7] has as its target JCV VP1 pentamer (amino acids 22-289) S266N/S268N, His-tagged (JC polyomavirus (JCV), Mad-1 strain). The assay can be described thus: SEC.
The target of assay [8] is JCV VP1 pentamer (amino acids 22-289, Mad-1 strain), His-tag removed, as crystallized (JC polyomavirus (JCV), Mad-1 strain). The assay can be described thus: crystal structure.
Assay [9] concerns the target JCV VP1 pentamer (amino acids 22-289, Mad-1 strain), His-tagged, wild type (JC polyomavirus (JCV), Mad-1 strain). The experiment in a line: SEC.

On to “JCV VP1 pentamer (amino acids 22-289) A126Q, His-tagged (domain or fragment)”, for which the stoichiometry N in [1] worked out at 5.
“JCV VP1 pentamer (amino acids 22-289) A126Y, His-tagged (domain or fragment)”: the stoichiometry N in assay [2] was determined as 5.
As to “JCV VP1 pentamer (amino acids 22-289) L54Y, His-tagged (domain or fragment)”, the stoichiometry N in [3] turned out to be 5.
With “JCV VP1 pentamer (amino acids 22-289) N123A, His-tagged (domain or fragment)”, in assay [4], the stoichiometry N is 5.
Regarding “JCV VP1 pentamer (amino acids 22-289) R265A, His-tagged (domain or fragment)”, the stoichiometry N in [5] was 5.
In the case of “JCV VP1 pentamer (amino acids 22-289) S266A/S268A, His-tagged (domain or fragment)”, in assay [6], the stoichiometry N is 5.
“JCV VP1 pentamer (amino acids 22-289) S266N/S268N, His-tagged (domain or fragment)” came in with a stoichiometry N in [7] of 5.
Consider “JCV VP1 pentamer (amino acids 22-289, Mad-1 strain), His-tag removed, as crystallized (domain or fragment)”, for which the stoichiometry N in [8] was 5.
Regarding “JCV VP1 pentamer (amino acids 22-289, Mad-1 strain), His-tagged, wild type (domain or fragment)”, the stoichiometry N in assay [9] was determined as 5.

One may read the stoichiometry N as the number of molecules, sites or subunits per partner or assembly.
